The results in this text go back to patent US20220363718A1 (Bicycle, published 2022).

*1 amine or outer side, *2 acyl side, *3 side chain or, on linkers, in order; H or OH if unused. Bridges are numbered along the chain shown (N, C = ends). Where no end group is shown, it is not given here. [ ]: non-standard residue; d: D form. Phe(4-OMe) = 4-methoxy-phenylalanine (4-MeOPhe) = O-methyl-tyrosine, COc1ccc(C[C@H](N[*:1])C(=O)[*:2])cc1; TATA = O=C(CC[*:1])N1CN(C(=O)CC[*:2])CN(C(=O)CC[*:3])C1; Abu(4,4,4-F3) = N[C@@H](CC(F)(F)F)C(=O)O; Orn = NCCC[C@H](N)C(=O)O

This experiment has as its target T1, Biotinylated human TSLP (human, biotinylated).
T1 construct: also called hTSLP; thymic stromal lymphopoietin
The experiment can be described thus: SPR, biotinylated hTSLP on streptavidin chip. A general note: In SPR one partner is held on a chip, and binding of the other changes the refractive index at the surface.

T1 sequence (chain, as listed by the source limits assumed): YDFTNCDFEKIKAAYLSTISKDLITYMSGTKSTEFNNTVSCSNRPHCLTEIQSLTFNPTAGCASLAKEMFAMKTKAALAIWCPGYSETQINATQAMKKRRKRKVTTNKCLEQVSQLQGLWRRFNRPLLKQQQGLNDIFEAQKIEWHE

With Ac-CQWLEDCWRG[Phe(4-OMe)]C (linker 1-7-12 via TATA) [Example 142], the affinity, expressed as Kd, was 710 nM. Under ACRDLDPWTCSSWWLCSESVHTA (linker 2-10-16 via TATA) [Example 175] stands 240 nM. Under RDLCTDLDPWTCPDWWLCA (linker 4-12-18 via TATA) [Example 189] stands 310 nM. For CQWXEDCWRGFC (N-term acetyl; CQW[M(O)]EDCWRGFC as printed; 3 Cys on TATA) [Example 147], the dissociation constant Kd was determined as 940 nM.

As to CTELDXWTCETWWLC (CTELD[5-Ph-P]WTCETWWLC as printed; 3 Cys on TATA) [Example 194], the affinity, expressed as Kd, was 290 nM. This Kd is about 3.2-fold lower than that of the molecule before.

As for ACDWVWEYDCWLPCA (linker 2-10-14 via TATA) [Example 197], the Kd was 460 nM. With CTELDXWTCETWWLC (CTELD[diF-P]WTCETWWLC as printed; 3 Cys on TATA) [Example 182], binding was characterised by a dissociation constant (Kd) of 1300 nM. Under ACESLDPWSCPVWWRCA (linker 2-10-16 via TATA; not fully specified (C-terminus)) [Example 161] stands 890 nM.

Ac-CQWLEDCWAGFC (linker 1-7-12 via TATA) [Example 149]: the affinity, expressed as Kd, was 1100 nM. This Kd and that of the molecule before are within 1.5-fold of each other.

For the molecule RAPCPDLDPWTCSDWWLCA (linker 4-12-18 via TATA) [Example 187], the affinity, expressed as Kd, was 86 nM. Under ACRDLDPWTCSSWWLCSSDTTDA (linker 2-10-16 via TATA) [Example 176] stands 300 nM; under CQXLEDCWXGXC (N-term acetyl; CQ[ButG]LEDCW[ButG]G[4-FPhe]C as printed; 3 Cys on TATA) [Example 145], 900 nM. Under ACDWQWSYDCWLPCA (linker 2-10-14 via TATA) [Example 196] stands 6100 nM; under AHPCADLDPWTCPNWWLCA (linker 4-12-18 via TATA; not fully specified (C-terminus)) [Example 165], 30 nM.

As for ACTDLDPWTCNSWWLCAGD (linker 2-10-16 via TATA; not fully specified (C-terminus)) [Example 169], the equilibrium dissociation constant (Kd) came to 290 nM. Under CKELDPWTCETWWLC (linker 1-9-15 via TATA) [Example 179] stands 360 nM; under CQELDPWTCETWWLC (linker 1-9-15 via TATA) [Example 181], 310 nM; under CTELDXWTCETWWLC (CTELD[Chx-P]WTCETWWLC as printed; 3 Cys on TATA) [Example 195], 15000 nM. With RENCRWLDDCWQGFCA (linker 4-10-15 via TATA) [Example 117] the figure was 250 nM; with CQWLEDCWXGFC (not fully specified; N-term acetyl; CQWLEDCW[Dap]GFC as printed; 3 Cys on TATA) [Example 155], 3200 nM. With ACRDLDPWTCSSWWLCADGLYDA (linker 2-10-16 via TATA) [Example 193] the figure was 50 nM; with CQWLEDCWXGFC (not fully specified; CQWLEDCW[Cit]GFC as printed; 3 Cys on TATA) [Example 102], 170 nM.

The molecule RVNTHQCRDLDPWTCSSWWLCA (linker 7-15-21 via TATA) [Example 190] yielded a Kd of 81 nM. Under SHVCRDLDPWTCDSWWLCA (linker 4-12-18 via TATA) [Example 188] stands 72 nM.

With ACEWLEDCWRGFCA (linker 2-8-13 via TATA; not fully specified (C-terminus)) [Example 101], the Kd was 160 nM. With ACRDLDPWTCEEWWLCAHP (linker 2-10-16 via TATA) [Example 170] the figure was 170 nM.

B1: Example 105 (peptide)
peptide: CQWLXDCWRGXC
modifications: not fully specified; N-term acetyl; CQWL[3-ClPhe]DCWRG[4-FPhe]C as printed; 3 Cys on TATA
B1 yielded an equilibrium dissociation constant (Kd) of 180 nM. Under CWWLXDCWRGXC (N-term acetyl; CWWL[3-ClPhe]DCWRG[4-FPhe]C as printed; 3 Cys on TATA) [Example 144] stands 860 nM. Under CQWLEDCWRGXC (N-term acetyl; CQWLEDCWRG[3-CNPhe]C as printed; 3 Cys on TATA) [Example 130] stands 400 nM; under Ac-CQW[Abu(4,4,4-F3)]EDCWRGFC (linker 1-7-12 via TATA; not fully specified (C-terminus)) [Example 111], 200 nM.

The molecule ACDWDWEYDCWLHCA (linker 2-10-14 via TATA) [Example 198] showed a Kd of 290 nM. With ACVDLDPWSCEDWWLCA (linker 2-10-16 via TATA) [Example 183] the figure was 330 nM; with ACKDLDPWTCSSWWECAPN (linker 2-10-16 via TATA; not fully specified (C-terminus)) [Example 167], 170 nM. For ACDWLDDCWKGFCA (linker 2-8-13 via TATA) [Example 141], the equilibrium dissociation constant (Kd) came to 600 nM. This Kd lies about 3.5-fold higher than the previous one. Take CQWLEDCWRGFCDTSTHS (linker 1-7-12 via TATA; not fully specified (C-terminus)) [Example 128]: the Kd turned out to be 380 nM. This Kd is about 1.6-fold lower than that of the molecule before. With CQWLEDCWXGFC (not fully specified; CQWLEDCW[Dap]GFC as printed; 3 Cys on TATA) [Example 156], the affinity, expressed as Kd, was 3300 nM. Under CHWLENCWXGFC (not fully specified; N-term acetyl; CHWLENCW[Dap]GFC as printed; 3 Cys on TATA) [Example 159] stands 5600 nM. Under CQWLEDCWXGFC (not fully specified; N-term acetyl; CQWLEDCW[Cit]GFC as printed; 3 Cys on TATA) [Example 104] stands 180 nM; under ACEWLEDCWKGFCHSE (linker 2-8-13 via TATA) [Example 136], 520 nM; under CHWLEDCWRGXC (N-term acetyl; CHWLEDCWRG[4-FPhe]C as printed; 3 Cys on TATA) [Example 19], 6.7 nM.

B2: Example 126 (peptide)
peptide: CAWLEDCWRGXC
modifications: not fully specified; N-term acetyl; C[dA]WLEDCWRG[4-FPhe]C as printed; 3 Cys on TATA
B2 had a Kd of 310 nM. Compared with the last molecule, the Kd is about 46-fold higher. As to CQWIEDCWRGXC (N-term acetyl; CQWIEDCWRG[4-FPhe]C as printed; 3 Cys on TATA) [Example 57], binding was put at a Kd of 51 nM.

B3: Example 43 (peptide)
peptide: CQWLFDCWRGXC
modifications: not fully specified; N-term acetyl; CQWLFDCWRG[4-FPhe]C as printed; 3 Cys on TATA
For B3, the affinity, expressed as Kd, was 30 nM. This Kd is about 1.7-fold lower than that of the molecule before.

As to CQWLFDCWRGXC (N-term acetyl; CQWLFDCWRG[4-FPhe]C as printed; C-terminal -COOH; 3 Cys on TATA) [Example 39], the dissociation constant (Kd) was 21 nM.

B4: Example 23 (peptide)
peptide: CQWLENCWRGXC
modifications: not fully specified; N-term acetyl; CQWLENCWRG[4-FPhe]C as printed; 3 Cys on TATA
As to B4, the Kd worked out at 9.9 nM. Under CQWLQDCFRGXC (N-term acetyl; CQWLQDCFRG[4-FPhe]C as printed; 3 Cys on TATA) [Example 118] stands 250 nM. With ACRDLDPWTCPTWWTCYDE (linker 2-10-16 via TATA; not fully specified (C-terminus)) [Example 168] the figure was 290 nM. With CQWLEDCWRGXC (N-term acetyl; CQWLEDCWRG[2ThienylA]C as printed; 3 Cys on TATA) [Example 135] the figure was 490 nM; with C[Orn]ELDPWTCETWWLC (linker 1-9-15 via TATA) [Example 180], 300 nM; with ACNWLEDCWHGFCHEE (linker 2-8-13 via TATA; not fully specified (C-terminus)) [Example 125], 300 nM. Consider ACFWLEDCWRGYCETA (linker 2-8-13 via TATA) [Example 138], for which the Kd was determined as 520 nM. As for ACRDLDPWTCSSWWLCKPDHVDA (linker 2-10-16 via TATA) [Example 177], the equilibrium dissociation constant (Kd) stood at 580 nM. Under Ac-CDWLEDCWRGFCTTS (linker 1-7-12 via TATA; not fully specified (C-terminus)) [Example 100] stands 160 nM; under CQWLEDCWXGFC (N-term acetyl; CQWLEDCW[Can]GFC as printed; 3 Cys on TATA) [Example 131], 400 nM.

The molecule CQWLEDCWRGXC (N-term acetyl; CQWLEDCWRG[3-BrPhe]C as printed; 3 Cys on TATA) [Example 143] registered a Kd of 750 nM. With ACTELDPWTCETWWLCA (linker 2-10-16 via TATA; not fully specified (C-terminus)) [Example 163] the figure was 230 nM.

Usually Kd stands for the concentration at which binding is half-saturated.
